Test results as given in US20220306695A1, “COMPSTATIN ANALOGUES AND THEIR MEDICAL USES” (priority 2019, published 2022).
Positions of bridges follow the written chain, without caps; N, C: chain ends. Non-standard residues stand in square brackets, D forms with d. Trp(1-Me) = Cn1cc(C[C@H](N)C(=O)O)c2ccccc21; Sar = CNCC(=O)O

B1: Compound 74 (peptide)
peptide: Ac-SEFCI[Trp(1-Me)]QDWGEHRC[Sar]GAES-NH2
modifications: disulfide 4-14
SMILES: CC[C@H](C)[C@@H]1NC(=O)[C@@H](NC(=O)[C@H](Cc2ccccc2)NC(=O)[C@H](CCC(=O)O)NC(=O)[C@H](CO)NC(C)=O)CSSC[C@@H](C(=O)N(C)CC(=O)NCC(=O)N[C@@H](C)C(=O)N[C@@H](CCC(=O)O)C(=O)N[C@@H](CO)C(N)=O)NC(=O)[C@H](CCCNC(=N)N)NC(=O)[C@H](Cc2c[nH]cn2)NC(=O)[C@H](CCC(=O)O)NC(=O)CNC(=O)[C@H](Cc2c[nH]c3ccccc23)NC(=O)[C@H](CC(=O)O)NC(=O)[C@H](CCC(N)=O)NC(=O)[C@H](Cc2cn(C)c3ccccc23)NC1=O
B2: Compound 79 (peptide)
peptide: Ac-SEFCI[Trp(1-Me)]QDW[Sar]EHRC[Sar]E-NH2
modifications: disulfide 4-14
SMILES: CC[C@H](C)[C@@H]1NC(=O)[C@@H](NC(=O)[C@H](Cc2ccccc2)NC(=O)[C@H](CCC(=O)O)NC(=O)[C@H](CO)NC(C)=O)CSSC[C@@H](C(=O)N(C)CC(=O)N[C@@H](CCC(=O)O)C(N)=O)NC(=O)[C@H](CCCNC(=N)N)NC(=O)[C@H](Cc2c[nH]cn2)NC(=O)[C@H](CCC(=O)O)NC(=O)CN(C)C(=O)[C@H](Cc2c[nH]c3ccccc23)NC(=O)[C@H](CC(=O)O)NC(=O)[C@H](CCC(N)=O)NC(=O)[C@H](Cc2cn(C)c3ccccc23)NC1=O
B3: Compound 80 (peptide)
peptide: Ac-EFCI[Trp(1-Me)]QDWGEHRC[Sar]EA-NH2
modifications: disulfide 3-13
SMILES: CC[C@H](C)[C@@H]1NC(=O)[C@@H](NC(=O)[C@H](Cc2ccccc2)NC(=O)[C@H](CCC(=O)O)NC(C)=O)CSSC[C@@H](C(=O)N(C)CC(=O)N[C@@H](CCC(=O)O)C(=O)N[C@@H](C)C(N)=O)NC(=O)[C@H](CCCNC(=N)N)NC(=O)[C@H](Cc2c[nH]cn2)NC(=O)[C@H](CCC(=O)O)NC(=O)CNC(=O)[C@H](Cc2c[nH]c3ccccc23)NC(=O)[C@H](CC(=O)O)NC(=O)[C@H](CCC(N)=O)NC(=O)[C@H](Cc2cn(C)c3ccccc23)NC1=O
B4: Compound 78 (peptide)
peptide: Ac-SEFCI[Trp(1-Me)]QDWGEHRC[Sar]E-NH2
modifications: disulfide 4-14
SMILES: CC[C@H](C)[C@@H]1NC(=O)[C@@H](NC(=O)[C@H](Cc2ccccc2)NC(=O)[C@H](CCC(=O)O)NC(=O)[C@H](CO)NC(C)=O)CSSC[C@@H](C(=O)N(C)CC(=O)N[C@@H](CCC(=O)O)C(N)=O)NC(=O)[C@H](CCCNC(=N)N)NC(=O)[C@H](Cc2c[nH]cn2)NC(=O)[C@H](CCC(=O)O)NC(=O)CNC(=O)[C@H](Cc2c[nH]c3ccccc23)NC(=O)[C@H](CC(=O)O)NC(=O)[C@H](CCC(N)=O)NC(=O)[C@H](Cc2cn(C)c3ccccc23)NC1=O
B5: Compound 77 (peptide)
peptide: Ac-SEFCI[Trp(1-Me)]QDW[Sar]EHRCTEA-NH2
modifications: disulfide 4-14
SMILES: CC[C@H](C)[C@@H]1NC(=O)[C@@H](NC(=O)[C@H](Cc2ccccc2)NC(=O)[C@H](CCC(=O)O)NC(=O)[C@H](CO)NC(C)=O)CSSC[C@@H](C(=O)N[C@H](C(=O)N[C@@H](CCC(=O)O)C(=O)N[C@@H](C)C(N)=O)[C@@H](C)O)NC(=O)[C@H](CCCNC(=N)N)NC(=O)[C@H](Cc2c[nH]cn2)NC(=O)[C@H](CCC(=O)O)NC(=O)CN(C)C(=O)[C@H](Cc2c[nH]c3ccccc23)NC(=O)[C@H](CC(=O)O)NC(=O)[C@H](CCC(N)=O)NC(=O)[C@H](Cc2cn(C)c3ccccc23)NC1=O
B6: Compound 84 (peptide)
peptide: Ac-SEFCI[Trp(1-Me)]QDWGEHRCSEA-NH2
modifications: disulfide 4-14
SMILES: CC[C@H](C)[C@@H]1NC(=O)[C@@H](NC(=O)[C@H](Cc2ccccc2)NC(=O)[C@H](CCC(=O)O)NC(=O)[C@H](CO)NC(C)=O)CSSC[C@@H](C(=O)N[C@@H](CO)C(=O)N[C@@H](CCC(=O)O)C(=O)N[C@@H](C)C(N)=O)NC(=O)[C@H](CCCNC(=N)N)NC(=O)[C@H](Cc2c[nH]cn2)NC(=O)[C@H](CCC(=O)O)NC(=O)CNC(=O)[C@H](Cc2c[nH]c3ccccc23)NC(=O)[C@H](CC(=O)O)NC(=O)[C@H](CCC(N)=O)NC(=O)[C@H](Cc2cn(C)c3ccccc23)NC1=O
B7: Compound 83 (peptide)
peptide: Ac-SEFCI[Trp(1-Me)]QEWGEHRC[Sar]EA-NH2
modifications: disulfide 4-14
SMILES: CC[C@H](C)[C@@H]1NC(=O)[C@@H](NC(=O)[C@H](Cc2ccccc2)NC(=O)[C@H](CCC(=O)O)NC(=O)[C@H](CO)NC(C)=O)CSSC[C@@H](C(=O)N(C)CC(=O)N[C@@H](CCC(=O)O)C(=O)N[C@@H](C)C(N)=O)NC(=O)[C@H](CCCNC(=N)N)NC(=O)[C@H](Cc2c[nH]cn2)NC(=O)[C@H](CCC(=O)O)NC(=O)CNC(=O)[C@H](Cc2c[nH]c3ccccc23)NC(=O)[C@H](CCC(=O)O)NC(=O)[C@H](CCC(N)=O)NC(=O)[C@H](Cc2cn(C)c3ccccc23)NC1=O
B8: Compound 87 (peptide)
peptide: Ac-GEFCI[Trp(1-Me)]QDWGEHRC[Sar]EA-NH2
modifications: disulfide 4-14
SMILES: CC[C@H](C)[C@@H]1NC(=O)[C@@H](NC(=O)[C@H](Cc2ccccc2)NC(=O)[C@H](CCC(=O)O)NC(=O)CNC(C)=O)CSSC[C@@H](C(=O)N(C)CC(=O)N[C@@H](CCC(=O)O)C(=O)N[C@@H](C)C(N)=O)NC(=O)[C@H](CCCNC(=N)N)NC(=O)[C@H](Cc2c[nH]cn2)NC(=O)[C@H](CCC(=O)O)NC(=O)CNC(=O)[C@H](Cc2c[nH]c3ccccc23)NC(=O)[C@H](CC(=O)O)NC(=O)[C@H](CCC(N)=O)NC(=O)[C@H](Cc2cn(C)c3ccccc23)NC1=O
B9: Compound 76 (peptide)
peptide: Ac-SEFCI[Trp(1-Me)]QDW[Sar]EHRC[Sar]EA-NH2
modifications: disulfide 4-14
SMILES: CC[C@H](C)[C@@H]1NC(=O)[C@@H](NC(=O)[C@H](Cc2ccccc2)NC(=O)[C@H](CCC(=O)O)NC(=O)[C@H](CO)NC(C)=O)CSSC[C@@H](C(=O)N(C)CC(=O)N[C@@H](CCC(=O)O)C(=O)N[C@@H](C)C(N)=O)NC(=O)[C@H](CCCNC(=N)N)NC(=O)[C@H](Cc2c[nH]cn2)NC(=O)[C@H](CCC(=O)O)NC(=O)CN(C)C(=O)[C@H](Cc2c[nH]c3ccccc23)NC(=O)[C@H](CC(=O)O)NC(=O)[C@H](CCC(N)=O)NC(=O)[C@H](Cc2cn(C)c3ccccc23)NC1=O

Target: Human C3 (human, UniProt P01024 23-1663)
Experiment: cell-based or functional assay

Human C3, sequence (P01024 23-1663 limits assumed): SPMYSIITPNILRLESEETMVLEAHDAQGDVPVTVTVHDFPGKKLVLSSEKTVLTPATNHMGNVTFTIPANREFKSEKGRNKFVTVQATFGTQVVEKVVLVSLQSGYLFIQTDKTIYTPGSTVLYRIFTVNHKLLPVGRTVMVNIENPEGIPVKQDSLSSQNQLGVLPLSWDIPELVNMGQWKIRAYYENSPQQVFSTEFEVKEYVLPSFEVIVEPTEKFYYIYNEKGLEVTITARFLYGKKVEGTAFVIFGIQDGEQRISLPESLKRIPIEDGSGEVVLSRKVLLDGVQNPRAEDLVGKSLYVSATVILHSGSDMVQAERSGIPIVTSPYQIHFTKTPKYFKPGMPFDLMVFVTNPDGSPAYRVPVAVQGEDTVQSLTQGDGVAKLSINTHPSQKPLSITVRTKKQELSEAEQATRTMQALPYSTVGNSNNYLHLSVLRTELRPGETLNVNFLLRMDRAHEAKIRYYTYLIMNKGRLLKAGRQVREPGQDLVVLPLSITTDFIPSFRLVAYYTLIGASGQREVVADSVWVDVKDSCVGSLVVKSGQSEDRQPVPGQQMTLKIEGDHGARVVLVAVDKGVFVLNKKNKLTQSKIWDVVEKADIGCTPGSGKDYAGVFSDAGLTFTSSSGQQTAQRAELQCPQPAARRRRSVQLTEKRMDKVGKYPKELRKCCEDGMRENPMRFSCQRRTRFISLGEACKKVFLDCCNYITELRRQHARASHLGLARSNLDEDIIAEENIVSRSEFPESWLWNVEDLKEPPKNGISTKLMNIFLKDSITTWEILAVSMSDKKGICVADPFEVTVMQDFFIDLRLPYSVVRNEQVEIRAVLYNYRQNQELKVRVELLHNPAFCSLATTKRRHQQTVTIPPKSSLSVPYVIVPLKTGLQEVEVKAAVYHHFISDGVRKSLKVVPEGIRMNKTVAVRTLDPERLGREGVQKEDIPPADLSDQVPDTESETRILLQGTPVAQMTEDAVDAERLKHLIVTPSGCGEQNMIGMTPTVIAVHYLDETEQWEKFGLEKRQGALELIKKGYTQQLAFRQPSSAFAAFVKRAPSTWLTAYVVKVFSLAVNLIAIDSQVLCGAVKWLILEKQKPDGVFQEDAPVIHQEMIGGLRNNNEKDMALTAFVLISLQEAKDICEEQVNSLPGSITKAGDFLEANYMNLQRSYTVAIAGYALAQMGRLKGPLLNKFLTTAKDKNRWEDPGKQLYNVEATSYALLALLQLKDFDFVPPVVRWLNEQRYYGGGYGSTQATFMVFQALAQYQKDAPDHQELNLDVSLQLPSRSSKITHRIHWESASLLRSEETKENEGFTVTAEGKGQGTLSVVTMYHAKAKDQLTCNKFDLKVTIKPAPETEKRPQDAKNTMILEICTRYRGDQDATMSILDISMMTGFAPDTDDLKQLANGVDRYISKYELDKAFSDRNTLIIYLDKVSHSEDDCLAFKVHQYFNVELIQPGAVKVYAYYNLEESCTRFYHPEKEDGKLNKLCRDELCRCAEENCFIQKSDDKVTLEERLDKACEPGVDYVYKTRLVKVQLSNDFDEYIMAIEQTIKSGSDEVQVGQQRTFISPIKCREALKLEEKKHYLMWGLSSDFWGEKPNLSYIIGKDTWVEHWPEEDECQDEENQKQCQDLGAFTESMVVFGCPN

Binder	IC50[nM], inhibition of hemolysis [nM]
B1	< 100
B2	< 100
B3	< 100
B4	< 100
B5	< 100
B6	< 100
B7	< 100
B8	< 100
B9	< 100
